Experiments:
[1] = target: T1, His-tagged recombinant human TfR (produced in-house) (human, UniProt P02786 89-760); test: SPR Biacore T200, His-tagged human TfR captured on anti-His, antibody as analyte, 25 C, 1:1 fit
T1 construct: also called hTfR; transferrin receptor 1
Procedure: (§1) TfR and C1s binding using surface plasmon resonance (SPR): Analysis of antibody binding to TfR was performed on a Biacore™ T200 instrument using anti-His capture at 25° C. Anti-His (Qiagen) was buffer exchanged into PBS pH 7.2, diluted to 25 μg/mL in 10 mM sodium acetate pH 4.0 and directly immobilized to a series S CM5 chip to a surface density of ˜10,000 RU using the amine coupling kit provided by Cytiva. His-tagged recombinant human TfR (produced in-house) was diluted in HBS-EP+ pH 7.4 running buffer (10 mM HEPES pH 7.4, 150 mM NaCl, 3 mM EDTA, 0.05% surfactant P20) and injected for 5 sec at 20 μL/min flowrate to obtain capture level of 20 RU. Antibodies were serially diluted 2-fold from 90 to 5.625 nM in running buffer and injected over the captured TfR for 3 min followed by 9 min dissociation in buffer at 30 μL/min. Each cycle was regenerated with 10 mM glycine pH 1.5. To measure C1s binding, anti-human Fc (Jackson) was directly immobilized to a CM5 chip using amine chemistry. Antibodies were diluted to 2.5 μg/mL in HBS-EP+ pH 7.4 and captured to the chip for 15 sec at 20 μL/min flowrate. Human active C1s (Complement Technology) was serially diluted 2-fold from 20 to 0.625 nM in running buffer and injected over the captured antibodies for 180 sec at 50 μL/min followed by 9 min dissociation in buffer. The bound complex was removed from the chip each cycle with 40 mM HCl and 0.85% phosphoric acid. Sensorgrams were processed using the Biacore™ Insight software and fit to a 1:1 binding model to obtain kinetic constants.
(§2) The six bispecific anti-aC1s/anti-TfR antibodies were first tested for their affinity for both TfR and aC1s via surface plasmon resonance (SPR) (Table 2).

[2] = target: T1, His-tagged recombinant human TfR …; test: SPR Biacore T200 (Table 2)
Procedure: as §1, with “The bound complex was removed from the chip each cycle with 40 mM HCl and 0.85% phosphoric acid. Sensorgrams were processed using the Biacore™ Insight software and fit to a 1:1 binding model to obtain kinetic constants.” left out

[3] = target: T2, Human active C1s (Complement Technology) (human, UniProt P09871 16-688); test: SPR Biacore T200, antibody captured on anti-human Fc, human active C1s as analyte, 1:1 fit
T2 construct: In the functional assays the target is the C1s of human serum; also called aC1s; human aC1s
T2 sequence: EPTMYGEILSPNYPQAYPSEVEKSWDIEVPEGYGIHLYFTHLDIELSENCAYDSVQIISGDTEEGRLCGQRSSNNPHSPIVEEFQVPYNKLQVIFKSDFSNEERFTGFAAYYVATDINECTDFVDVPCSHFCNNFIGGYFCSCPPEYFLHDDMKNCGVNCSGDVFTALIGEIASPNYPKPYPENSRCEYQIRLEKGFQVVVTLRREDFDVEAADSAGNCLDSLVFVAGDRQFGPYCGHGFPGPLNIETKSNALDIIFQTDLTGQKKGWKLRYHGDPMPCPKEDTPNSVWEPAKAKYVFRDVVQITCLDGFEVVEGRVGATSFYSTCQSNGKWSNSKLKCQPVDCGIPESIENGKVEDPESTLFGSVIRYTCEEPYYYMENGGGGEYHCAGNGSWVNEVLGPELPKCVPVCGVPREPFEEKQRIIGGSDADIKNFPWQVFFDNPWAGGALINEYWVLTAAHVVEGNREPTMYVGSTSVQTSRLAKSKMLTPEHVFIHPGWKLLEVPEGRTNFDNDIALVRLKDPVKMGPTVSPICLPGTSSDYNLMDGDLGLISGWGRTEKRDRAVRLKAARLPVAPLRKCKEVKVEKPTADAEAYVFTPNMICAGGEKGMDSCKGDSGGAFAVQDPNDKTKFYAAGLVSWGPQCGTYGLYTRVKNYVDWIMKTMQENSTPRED
Procedure: as §1, §2

[4] = target: T2, Human active C1s (Complement Technology); test: cell-based or functional assay
[5] = target: T1, His-tagged recombinant human TfR …; test: hTfR affinity, SPR (method not restated for Table 1; same value as Table 2)
Procedure: as §1, §2

[6] = target: T2, Human active C1s (Complement Technology); test: cell-based or functional assay; remark: listed apart in the source

T1 sequence (P02786 89-760 limits assumed): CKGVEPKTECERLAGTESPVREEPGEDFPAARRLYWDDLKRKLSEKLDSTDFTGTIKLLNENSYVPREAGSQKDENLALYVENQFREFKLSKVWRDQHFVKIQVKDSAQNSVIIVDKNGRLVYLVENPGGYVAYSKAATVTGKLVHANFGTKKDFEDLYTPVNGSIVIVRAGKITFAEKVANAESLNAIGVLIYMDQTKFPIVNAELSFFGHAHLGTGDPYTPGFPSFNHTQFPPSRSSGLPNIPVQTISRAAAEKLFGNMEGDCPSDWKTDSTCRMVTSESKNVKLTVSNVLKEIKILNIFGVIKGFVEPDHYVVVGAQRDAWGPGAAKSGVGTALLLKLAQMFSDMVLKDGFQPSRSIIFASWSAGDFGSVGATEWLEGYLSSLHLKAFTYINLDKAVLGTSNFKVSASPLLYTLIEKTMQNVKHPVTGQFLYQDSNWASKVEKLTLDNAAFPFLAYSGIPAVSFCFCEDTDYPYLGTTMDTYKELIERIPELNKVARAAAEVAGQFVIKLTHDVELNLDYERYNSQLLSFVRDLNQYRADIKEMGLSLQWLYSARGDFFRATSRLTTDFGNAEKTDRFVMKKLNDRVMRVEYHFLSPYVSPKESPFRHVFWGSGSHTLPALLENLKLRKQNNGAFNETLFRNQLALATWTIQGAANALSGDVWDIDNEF

- Kd [1]: 9.65 nM
- koff [1]: 0.00183 s⁻¹
- kon [1]: 189000 M⁻¹ s⁻¹
- fold higher affinity than the 531v25 and 531v25.v6 variants [2]: ~2 fold
- Kd [3]: 0.79 nM
- koff [3]: 0.00245 s⁻¹
- kon [3]: 3.14e+06 M⁻¹ s⁻¹
- IC50, C3d deposition on neurons in iPSC tricultures with serum [4]: 16.2 µg/mL
- Kd [5]: 9.65 nM
- IC50, Wieslab Complement Pathway Assay (classical pathway, 1% NHS) [6]: 1.67 µg/mL
B1: aC1s_088 × 531v23 IgG4-PE/dK (bispecific antibody, V domains shown)
VH 1: QVQLVQSGAEVKKPGASVKLSCTASGFNIKDDYIHWVKEAPGQGLEWIGRIDPADGHTKYAPKFQVKVTITADTSTSTAYLELSSLRSEDTAVYYCARYGYGREVFDYWGQGTTVTVSS
VL 1: DIVLTQSPDSLAVSLGERATISCKASQSVDYDGDSYMNWYQKKPGQPPKILIYDASNLESGIPARFSGSGSGTDFTLTISSLEPEDFAIYYCQQSNEDPWTFGGGTKVEIK
VH 2: QVQLVQSGAEVKKPGASVKVSCKASGYTFTRYYLNWVRKAPGQGLEWIGMIDPSVSETHYAQKFQGRATLTVDKSTSTAYMELSSLRSEDTAVYYCSQIRLPYYYAMDSWGQGTTVTVSS
VL 2: DIQMTQSPSSLSASVGDRVTITCRASQDISSFLNWYQEKPGKAPKLLIYYTSRLHSGVPSRFSGSGSGTDYTLTISSLQPEDFATYYCQQGNTLPRTFGGGTKVEIK
notes: IgG4-PE Fc, dK, with charge pairing mutations; The charge-mutated (starred) variable domains are used for both arms; also called aC1s_088-CM × 531v23 IgG4

Reference: patent US20250376511A1 (Sanofi, published 2025)
